In the assay the target is SARS-CoV-2 spike protein receptor binding domain (RBD) (SARS-CoV-2, UniProt P0DTC2 319-541). In words: SPR. (Surface plasmon resonance follows binding to a sensor surface in real time, without labels.)

For orientation: Kd means a measure of binding affinity in units of concentration. A lower Kd goes with higher affinity.

B1: bACE2-Rm (H41-Q42) mutant, mouse Fc tagged (Fc fusion)
chain: STTEDEAKKFLDKFNSKAEDLSHQSSLASWDYNTNISDENVQKMDEAGAKWSAFYEEQSKLAKNYPLEEIQNDTVKRQLQILQQSGSPVLSEDKSKRLNSILNAMSTIYSTGKVCKPNNPQECLLLEPGLDNIMGTSKDYNERLWAWEGWRAEVGKQLRPLYEEYVVLKNEMARGYHYEDYGDYWRRDYETEESSGPGYSRDQLMKDVDRIFTEIKPLYEHLHAYVRAKLMDTYPLHISPTGCLPAHLLGDMWGRFWTNLYPLTVPFGQKPNIDVTDAMLNQGWDANRIFKEAEKFFVSVSLPKMTEGFWNKSMLTEPGDGRKVVCHPTAWDLGKGDFRIKMCTKVTMEDFLTAHHEMGHIQYDMAYASQPYLLRNGANEGFHEAVGEVMSLSVATPKHLKTMGLLSPDFREDDETEINFLLKQALNIVGTLPFTYMLEKWRWMVFKGEIPKEEWMKKWWEMKREIVGVVEPVPHDETYCDPASLFHVANDYSFIRYYTRTIFEFQFHEALCRIAQHNGPLHKCDISNSTDAGKKLHQMLSVGKSQAWTKTLEDIVDSRNMDVGPLLRYFKPLYTWLQEQNRKSYVGWNTDWSPYAD
With B1, the Kd came to 2220 nM.

B2: bACE2-Rm (Y41-Q42) mutant, mouse Fc tagged (Fc fusion)
chain: STTEDEAKKFLDKFNSKAEDLSYQSSLASWDYNTNISDENVQKMDEAGAKWSAFYEEQSKLAKNYPLEEIQNDTVKRQLQILQQSGSPVLSEDKSKRLNSILNAMSTIYSTGKVCKPNNPQECLLLEPGLDNIMGTSKDYNERLWAWEGWRAEVGKQLRPLYEEYVVLKNEMARGYHYEDYGDYWRRDYETEESSGPGYSRDQLMKDVDRIFTEIKPLYEHLHAYVRAKLMDTYPLHISPTGCLPAHLLGDMWGRFWTNLYPLTVPFGQKPNIDVTDAMLNQGWDANRIFKEAEKFFVSVSLPKMTEGFWNKSMLTEPGDGRKVVCHPTAWDLGKGDFRIKMCTKVTMEDFLTAHHEMGHIQYDMAYASQPYLLRNGANEGFHEAVGEVMSLSVATPKHLKTMGLLSPDFREDDETEINFLLKQALNIVGTLPFTYMLEKWRWMVFKGEIPKEEWMKKWWEMKREIVGVVEPVPHDETYCDPASLFHVANDYSFIRYYTRTIFEFQFHEALCRIAQHNGPLHKCDISNSTDAGKKLHQMLSVGKSQAWTKTLEDIVDSRNMDVGPLLRYFKPLYTWLQEQNRKSYVGWNTDWSPYAD
B2 showed a Kd of 250 nM.

Values taken from PMC7817217 (Proceedings of the National Academy of Sciences of the …, 2020).
